In IntAct's records for PubMed 21602882:

B1: Tumor protein 63 (Homo sapiens), Q9H3D4 (parent)
chain: MNFETSRCATLQYCPDPYIQRFVETPAHFSWKESYYRSTMSQSTQTNEFLSPEVFQHIWDFLEQPICSVQPIDLNFVDEPSEDGATNKIEISMDCIRMQDSDLSDPMWPQYTNLGLLNSMDQQIQNGSSSTSPYNTDHAQNSVTAPSPYAQPSSTFDALSPSPAIPSNTDYPGPHSFDVSFQQSSTAKSATWTYSTELKKLYCQIAKTCPIQIKVMTPPPQGAVIRAMPVYKKAEHVTEVVKRCPNHELSREFNEGQIAPPSHLIRVEGNSHAQYVEDPITGRQSVLVPYEPPQVGTEFTTVLYNFMCNSSCVGGMNRRPILIIVTLETRDGQVLGRRCFEARICACPGRDRKADEDSIRKQQVSDSTKNGDGTKRPFRQNTHGIQMTSIKKRRSPDDELLYLPVRGRETYEMLLKIKESLELMQYLPQHTIETYRQQQQQQHQHLLQKQTSIQSPSSYGNSSPPLNKMNSMNKLPSVSQLINPQQRNALTPTTIPDGMGANIPMMGTHMPMAGDMNGLSPTQALPPPLSMPSTSHCTPPPPYPTDCSIVSFLARLGCSSCLDYFTTQGLTTIYQIEHYSMDDLASLKIPEQFRHAIWKGILDHRQLHEFSSPSHLLRTPSSASTVSVGSSETRGERVIDAVRFTLRQTISFPPRDEWNDFNFDMDARRNKQQRIKEEGE

Variants of: B1
Conditions: with hipk2_human HIPK2, Q9H2X6
Chain of hipk2_human HIPK2, Q9H2X6 (Q9H2X6 whole entry, looked up): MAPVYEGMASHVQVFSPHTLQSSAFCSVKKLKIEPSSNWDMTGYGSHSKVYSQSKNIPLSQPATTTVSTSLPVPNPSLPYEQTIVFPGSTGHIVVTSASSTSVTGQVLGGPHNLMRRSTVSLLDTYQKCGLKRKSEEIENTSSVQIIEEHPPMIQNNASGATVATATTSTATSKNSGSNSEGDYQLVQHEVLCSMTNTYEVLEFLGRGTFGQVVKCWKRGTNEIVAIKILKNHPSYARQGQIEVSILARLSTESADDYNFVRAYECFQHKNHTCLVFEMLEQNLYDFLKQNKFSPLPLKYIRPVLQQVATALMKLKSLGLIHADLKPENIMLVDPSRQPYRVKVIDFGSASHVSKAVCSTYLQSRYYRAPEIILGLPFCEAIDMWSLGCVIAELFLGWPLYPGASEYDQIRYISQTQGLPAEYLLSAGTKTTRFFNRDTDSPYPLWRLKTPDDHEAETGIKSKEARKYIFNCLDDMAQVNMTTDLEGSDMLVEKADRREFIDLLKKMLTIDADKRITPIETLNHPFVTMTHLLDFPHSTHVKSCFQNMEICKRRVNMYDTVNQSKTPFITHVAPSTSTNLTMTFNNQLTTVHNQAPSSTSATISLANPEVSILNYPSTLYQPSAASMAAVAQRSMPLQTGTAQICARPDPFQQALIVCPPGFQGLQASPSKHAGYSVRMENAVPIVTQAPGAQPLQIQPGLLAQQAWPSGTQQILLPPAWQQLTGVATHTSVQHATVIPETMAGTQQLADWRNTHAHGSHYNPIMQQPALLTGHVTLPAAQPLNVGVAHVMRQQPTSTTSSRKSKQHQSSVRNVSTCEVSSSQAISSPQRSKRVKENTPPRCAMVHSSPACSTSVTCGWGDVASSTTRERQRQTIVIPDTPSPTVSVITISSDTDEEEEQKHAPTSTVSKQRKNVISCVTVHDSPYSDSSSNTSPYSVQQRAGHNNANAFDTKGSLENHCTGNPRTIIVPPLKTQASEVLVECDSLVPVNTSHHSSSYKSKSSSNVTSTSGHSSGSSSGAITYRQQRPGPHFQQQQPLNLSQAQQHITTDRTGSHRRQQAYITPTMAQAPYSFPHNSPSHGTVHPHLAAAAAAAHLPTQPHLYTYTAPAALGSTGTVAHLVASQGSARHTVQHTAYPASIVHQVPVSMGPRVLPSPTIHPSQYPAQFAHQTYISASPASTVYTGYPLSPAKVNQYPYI

| Variant | effect of a mutation on the interaction |
| --- | --- |
| T491A | disrupting interaction strength |
